How the values were obtained:
[1] = target: AGE-modified bovine serum albumin (AGE-BSA), prepared by incubating BSA in 1.67 M glucose for two months (bovine) (UniProt P02769); experiment: FIG. 1D RE series, after processing cycles
[2] = target: AGE-modified bovine serum albumin (AGE-BSA), prepared by incubating BSA in 1.67 M glucose for two months (bovine) (UniProt P02769); experiment: FIG. 1D RET series, after 6 processing cycles
[3] = target: AGE-modified bovine serum albumin (AGE-BSA), prepared by incubating BSA in 1.67 M glucose for two months (bovine) (UniProt P02769); experiment: FIG. 1D initial capacity of the RE series; batch adsorption, competitive ELISA
[4] = target: AGE-modified bovine serum albumin (AGE-BSA), prepared by incubating BSA in 1.67 M glucose for two months (bovine) (UniProt P02769); experiment: FIG. 1D initial capacity of the RET series; batch adsorption, competitive ELISA
[5] = target: AGE-modified bovine serum albumin (AGE-BSA), prepared by incubating BSA in 1.67 M glucose for two months (bovine) (UniProt P02769); experiment: FIG. 1C initial capacity before storage in 20% ethanol; batch adsorption, competitive ELISA
[6] = target: AGE-modified bovine serum albumin (AGE-BSA), prepared by incubating BSA in 1.67 M glucose for two months (bovine) (UniProt P02769); experiment: FIG. 1A thermal stability, final capacity (4 h at 37 C); batch adsorption, competitive ELISA
[7] = target: AGE-modified bovine serum albumin (AGE-BSA), prepared by incubating BSA in 1.67 M glucose for two months (bovine) (UniProt P02769); experiment: FIG. 1A thermal stability, initial capacity (1 h at 37 C); batch adsorption, competitive ELISA
[8] = target: AGE-modified bovine serum albumin (AGE-BSA), prepared by incubating BSA in 1.67 M glucose for two months (bovine) (UniProt P02769); experiment: FIG. 1C final capacity after 34 days in 20% ethanol at 4 C; batch adsorption, competitive ELISA
[9] = target: AGE-modified bovine serum albumin (AGE-BSA), prepared by incubating BSA in 1.67 M glucose for two months (bovine) (UniProt P02769); experiment: FIG. 1D final capacity after cycles of regeneration and ethanol storage (RE), 1 h at 37 C; batch adsorption, competitive ELISA
[10] = target: AGE-modified bovine serum albumin (AGE-BSA), prepared by incubating BSA in 1.67 M glucose for two months (bovine) (UniProt P02769); experiment: FIG. 1D final capacity after 6 cycles of regeneration, ethanol storage and 4 h at 37 C (RET); batch adsorption, competitive ELISA

Chain of AGE-modified bovine serum albumin (AGE-BSA), prepared by incubating BSA in 1.67 M glucose for two months (bovine) (P02769 25-607 limits assumed): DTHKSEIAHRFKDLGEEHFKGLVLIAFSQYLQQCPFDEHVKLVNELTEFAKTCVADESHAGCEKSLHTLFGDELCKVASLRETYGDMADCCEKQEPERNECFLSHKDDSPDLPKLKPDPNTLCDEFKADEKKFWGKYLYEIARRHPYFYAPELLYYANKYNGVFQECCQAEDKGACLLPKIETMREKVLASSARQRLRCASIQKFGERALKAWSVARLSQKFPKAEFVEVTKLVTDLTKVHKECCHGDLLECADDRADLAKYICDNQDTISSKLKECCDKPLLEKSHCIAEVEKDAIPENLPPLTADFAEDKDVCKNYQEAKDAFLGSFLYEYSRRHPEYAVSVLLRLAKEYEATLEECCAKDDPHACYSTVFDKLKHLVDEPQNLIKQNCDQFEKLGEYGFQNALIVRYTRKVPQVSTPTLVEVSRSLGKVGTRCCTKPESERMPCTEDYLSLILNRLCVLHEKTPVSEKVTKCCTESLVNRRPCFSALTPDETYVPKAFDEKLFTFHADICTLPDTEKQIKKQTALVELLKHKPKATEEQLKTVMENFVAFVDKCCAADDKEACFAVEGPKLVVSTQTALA

decrease of binding capacity against the initial value [1]: 10%
decrease of binding capacity against the initial binding capacity [2]: 16%
binding capacity (mg AGE-BSA/ml RAGE gel) [3]: 0.92
binding capacity (mg AGE-BSA/ml RAGE gel) [4]: 0.94
binding capacity (mg AGE-BSA/ml RAGE gel) [5]: 0.6
binding capacity (mg AGE-BSA/ml RAGE gel) [6]: 0.94
binding capacity (mg AGE-BSA/ml RAGE gel) [7]: 0.92
binding capacity (mg AGE-BSA/ml RAGE gel) [8]: 0.57
binding capacity (mg AGE-BSA/ml RAGE gel) [9]: 0.82
binding capacity (mg AGE-BSA/ml RAGE gel) [10]: 0.79
Substance: RAGE-His construct (extracellular region of human RAGE, amino acid residues 23 through 340, with C-terminal six-histidine tag), immobilized on agarose (from UniProt Q15109 23-340) (receptor)
